Assay results reported in US20120034231A1.

Tests used:
[1] = target: cynomolgus IL12Rβ1 (cynomolgus); assay: FACS on Baf3 cells transfected with cyno IL12Rβ1, mouse control mAb
[2] = target: human IL12Rβ1 (human) (UniProt P42701); assay: FACS on Baf3 cells transfected with human IL12Rβ1, mouse control mAb

EC50 [1]: 1.47 nM
EC50 [2]: 2.35 nM
Substance: Mab839 (mouse monoclonal anti-human IL12Rβ1 control antibody, R&D Systems, Cat# MAB839)
